According to article doi:10.1101/2024.05.17.594765:

B1: C-terminally Halo-tagged full-length zyxin (zyxin-Halo) [modified: Janelia Fluor 646 Halo-ligand conjugated to the Halo tag; Janelia Fluor 646 Halo-ligand conjugated to the Halo tag] [human] / C-terminally … (parent)
chain 1: MSETVICSSRATVMLYDDGNKRWLPAGTGPQAFSRVQIYHNPTANSFRVVGRKMQPDQQVVINCAIVRGVKYNQATPNFHQWRDARQVWGLNFGSKEDAAQFAAGMASALEALEGGGPPPPPALPTWSVPNGPSPEEVEQQKRQQPGPSEHIERRVSNAGGPPAPPAGGPPPPPGPPPPPGPPPPPGLPPSGVPAAAHGAGGGPPPAPPLPAAQGPGGGGAGAPGLAAAIAGAKLRKVSKQEEASGGPTAPKAESGRSGGGGLMEEMNAMLARRRKATQVGEKTPKDESANQEEPEARVPAQSESVRRPWEKNSTTLPRMKSSSSVTTSETQPCTPSSSDYSDLQRVKQELLEEVKKELQKVKEEIIEAFVQELRKRGSP
chain 2: MAAPRPSPAISVSVSAPAFYAPQKKFGPVVAPKPKVNPFRPGDSEPPPAPGAQRAQMGRVGEIPPPPPEDFPLPPPPLAGDGDDAEGALGGAFPPPPPPIEESFPPAPLEEEIFPSPPPPPEEEGGPEAPIPPPPQPREKVSSIDLEIDSLSSLLDDMTKNDPFKARVSSGYVPPPVATPFSSKSSTKPAAGGTAPLPPWKSPSSSQPLPQVPAPAQSQTQFHVQPQPQPKPQVQLHVQSQTQPVSLANTQPRGPPASSPAPAPKFSPVTPKFTPVASKFSPGAPGGSGSQPNQKLGHPEALSAGTGSPQPPSFTYAQQREKPRVQEKQHPVPPPAQNQNQVRSPGAPGPLTLKEVEELEQLTQQLMQDMEHPQRQNVAVNELCGRCHQPLARAQPAVRALGQLFHIACFTCHQCAQQLQGQQFYSLEGAPYCEGCYTDTLEKCNTCGEPITDRMLRATGKAYHPHCFTCVVCARPLEGTSFIVDQANRPHCVPDYHKQYAPRCSVCSEPIMPEPGRDETVRVVALDKNFHMKCYKCEDCGKPLSIEADDNGCFPLDGHVLCRKCHTARAQT

Variants of: B1
Test: force reconstitution TIRF assay
Conditions: with C-terminally Halo-tagged VASP (VASP-Halo) [modified: Janelia Fluor 549 Halo-ligand conjugated to the Halo tag, images were acquired every 1 s, read off a plot

screen value	Variant
38	chain 2 F71A F93A F104A F114A

Variants of: B1
Test: force reconstitution TIRF assay
Conditions: with C-terminally Halo-tagged VASP (VASP-Halo) [modified: Janelia Fluor 549 Halo-ligand conjugated to the Halo tag, images were acquired every 1 s, read off a plot
Remark: another data set of the same source

screen value [s]	Variant
2.6	chain 2 F71A F93A F104A F114A
